In data set [1] the target is Vps4_(ΔMIT, E233Q) (solution experiments) (S. cerevisiae) (UniProt P52917). The experiment in a line: AUC.
The data set “AUC” deals with the molecule itself. The experiment in a line: AUC.

Bounds are passed on as bounds.

Take “Vps4_(ΔMIT, E233Q) (solution experiments) (from UniProt P52917 104-437) (domain or fragment)”: in data set [1], the stoichiometry N was found to be 2.19.

B1: full length Vps4_(E233Q) (S. cerevisiae) (enzyme, UniProt P52917 1-437, looked up)
chain: MSTGDFLTKGIELVQKAIDLDTATQYEEAYTAYYNGLDYLMLALKYEKNPKSKDLIRAKFTEYLNRAEQLKKHLESEEANAAKKSPSAGSGSNGGNKKISQEEGEDNGGEDNKKLRGALSSAILSEKPNVKWEDVAGLEGAKEALKEAVILPVKFPHLFKGNRKPTSGILLYGPPGTGKSYLAKAVATEANSTFFSVSSSDLVSKWMGESEKLVKQLFAMARENKPSIIFIDQVDALTGTRGEGESEASRRIKTELLVQMNGVGNDSQGVLVLGATNIPWQLDSAIRRRFERRIYIPLPDLAARTTMFEINVGDTPCVLTKEDYRTLGAMTEGYSGSDIAVVVKDALMQPIRKIQSATHFKDVSTEDDETRKLTPCSPGDDGAIEMSWTDIEADELKEPDLTIKDFLKAIKSTRPTVNEDDLLKQEQFTRDFGQEGN
Consider B1, for which, in “AUC”, the Kd was < 5 µM and the “stoichiometry N” value worked out at 1.97.

Values taken from paper PMC2632936 (Journal of molecular biology, 2008).
